US20200317817A1 (XOMA US, published 2020)

Legend:
[1] = biological target: T1, mouse PTH1R overexpressed on CHO cells (mouse, UniProt P41593 27-591); assay: flow cytometry on CHO cells, 24 hr at 4 C
T1 construct: whole, on cells; also called CHO mouse PTH1R; CHO Mouse PTHR
T1 sequence (looked up): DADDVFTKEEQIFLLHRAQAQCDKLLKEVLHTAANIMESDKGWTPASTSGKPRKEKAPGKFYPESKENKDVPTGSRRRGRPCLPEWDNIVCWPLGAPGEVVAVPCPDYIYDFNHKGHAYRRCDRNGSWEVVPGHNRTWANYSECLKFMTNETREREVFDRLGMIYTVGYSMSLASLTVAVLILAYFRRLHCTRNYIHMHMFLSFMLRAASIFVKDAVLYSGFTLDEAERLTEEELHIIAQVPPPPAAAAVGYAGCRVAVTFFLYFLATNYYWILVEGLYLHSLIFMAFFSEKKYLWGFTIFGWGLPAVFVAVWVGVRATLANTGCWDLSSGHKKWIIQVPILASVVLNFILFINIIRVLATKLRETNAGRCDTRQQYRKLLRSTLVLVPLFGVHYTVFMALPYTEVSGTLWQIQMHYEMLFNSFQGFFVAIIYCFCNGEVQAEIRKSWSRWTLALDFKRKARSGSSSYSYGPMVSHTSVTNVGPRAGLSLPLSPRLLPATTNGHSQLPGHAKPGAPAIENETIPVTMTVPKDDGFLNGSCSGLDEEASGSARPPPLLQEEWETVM
Experimental: (§1) To characterize antibody binding to PTH1R, cells were labeled with either CellTrace™ CFSE or CellTrace™ Violet. Unlabeled CHOK1 parent, CHO human PTH1R labeled with CellTrace™CFSE, and CHO mouse PTH1R labeled with CellTrace™Violet were pooled together and stained with increasing concentrations of antibody. Antibodies were incubated for 24 hr at 4° C. followed by two washes with FACS Buffer (0.5% BSA, 0.1% NaN3 in DPBS). Cells were then incubated with Allophycocyanin (APC) AffiniPure F(ab′)₂ Fragment Goat Anti-Human IgG (H+L) (Jackson ImmunoResearch, West Grove, Pa.) for 20 minutes at 4° C. Followed by two washes, cells were resuspended in FACS Buffer. Samples were acquired using BD Cytometer (BD Biosciences, San Jose, Calif.) and data were analyzed using FlowJo (FlowJo, LLC, Ashland, Oreg.) and Prism (GraphPad Software, La Jolla, Calif.).

[2] = biological target: T2, human PTH1R overexpressed on CHO cells (human, UniProt Q03431 27-593); assay: flow cytometry on CHO cells, 24 hr at 4 C
T2 construct: whole, on cells; also called CHO human PTH1R; CHO Human PTHR
T2 sequence (looked up): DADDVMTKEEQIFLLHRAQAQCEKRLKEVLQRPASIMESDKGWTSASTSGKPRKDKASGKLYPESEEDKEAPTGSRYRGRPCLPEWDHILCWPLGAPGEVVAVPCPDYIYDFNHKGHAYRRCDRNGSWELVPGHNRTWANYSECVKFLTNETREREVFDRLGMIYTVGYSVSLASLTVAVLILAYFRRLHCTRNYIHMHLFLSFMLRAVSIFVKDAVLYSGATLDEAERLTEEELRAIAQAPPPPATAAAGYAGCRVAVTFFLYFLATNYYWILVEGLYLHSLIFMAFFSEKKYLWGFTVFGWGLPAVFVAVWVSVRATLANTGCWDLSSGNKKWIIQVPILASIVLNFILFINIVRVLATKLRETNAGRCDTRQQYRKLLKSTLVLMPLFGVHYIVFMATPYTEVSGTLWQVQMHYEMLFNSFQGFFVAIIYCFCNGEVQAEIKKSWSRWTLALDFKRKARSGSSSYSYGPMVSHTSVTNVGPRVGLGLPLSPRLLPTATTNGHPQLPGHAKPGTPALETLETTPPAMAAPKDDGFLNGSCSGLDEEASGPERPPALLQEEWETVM
Experimental: as §1

[3] = biological target: T3, recombinant N-terminal extracellular domain of the human PTH1R receptor (human, UniProt Q03431 27-188, limits assumed); assay: SPR, IgG captured, ECD injected
T3 construct: domain: N-terminal extracellular domain; Bought reagent; also called N-ECD PTH1R; PTH1R N-terminal ECD
T3 sequence (looked up): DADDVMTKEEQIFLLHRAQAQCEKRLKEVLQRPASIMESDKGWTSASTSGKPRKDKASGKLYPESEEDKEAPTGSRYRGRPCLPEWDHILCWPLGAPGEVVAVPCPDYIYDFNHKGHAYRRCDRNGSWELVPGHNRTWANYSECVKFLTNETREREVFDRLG
Experimental: An anti-human IgG-Fc CMS sensor chip (GE Healthcare) was prepared using standard amine coupling as described by the manufacturer's protocol for the capture Ab on a BIACORE 4000 system (GE Healthcare). Briefly, the chip surface was activated with a 10 minute injection at 10 μL/minute of a freshly mixed 1:1 solution of 0.1 M N-Hydroxysuccinimide (NHS) and 0.4 M 1-Ethyl-3-(3-dimethylaminopropyl) carbodiimide hydrochloride (EDC). Following the activation injection, 15 ug/mL anti-human IgG-Fc antibody in acetate pH 4.5 was injected at 10 μL/minute for 10 minutes to achieve a high density capture surface. 7 minutes of 1M Ethanolamine hydrochloride-NaOH pH 8.5 was injected to block the surface. The NHS, EDC, and Ethanolamine used were from the BIACORE Amine Coupling Kit.
Kinetic Analysis was performed using HBS-EP+(Teknova) with 2.5 mg/mL BSA (Sigma Aldrich, St. Louis Mo.). Antibodies were diluted to 0.5 μg/mL and captured to achieve a surface density of 100 to 200 RU. […] Injections were performed at 30 μL/minute for 240 seconds with a 360 second dissociation time. Regeneration was then performed with one 60 second injection 3M MgCl.
The data were analyzed using BIACORE 4000 Evaluation Software and was double referenced by subtracting both the blank flow cell data and the averaged bracketing blank injections. The data was fit by simultaneously fitting the an off-rate (kd) and on-rate (kₐ), and calculating the KD as KD=kd/kₐ.

[4] = biological target: T1, mouse PTH1R overexpressed on CHO cells; assay: cell-based or functional assay
[5] = biological target: T4, human PTH1R on Saos-2 cells (endogenous) (human, UniProt Q03431 27-593); assay: cell-based or functional assay
T4 sequence (looked up): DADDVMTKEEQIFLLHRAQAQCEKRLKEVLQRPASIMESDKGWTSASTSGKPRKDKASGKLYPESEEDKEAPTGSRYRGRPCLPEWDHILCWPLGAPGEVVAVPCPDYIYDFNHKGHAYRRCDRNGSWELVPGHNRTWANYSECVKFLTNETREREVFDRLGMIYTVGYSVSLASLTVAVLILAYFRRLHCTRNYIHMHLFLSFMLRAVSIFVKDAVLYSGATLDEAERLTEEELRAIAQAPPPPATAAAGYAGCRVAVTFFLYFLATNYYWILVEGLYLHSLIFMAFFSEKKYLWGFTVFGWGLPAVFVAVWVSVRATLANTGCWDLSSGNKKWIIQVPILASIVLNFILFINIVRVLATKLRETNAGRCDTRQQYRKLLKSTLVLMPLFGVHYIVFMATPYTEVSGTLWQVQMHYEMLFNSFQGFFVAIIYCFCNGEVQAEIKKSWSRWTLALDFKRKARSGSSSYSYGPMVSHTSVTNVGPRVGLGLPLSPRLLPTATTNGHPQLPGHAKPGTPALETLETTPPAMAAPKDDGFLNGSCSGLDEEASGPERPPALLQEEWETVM

[6] = biological target: T2, human PTH1R overexpressed on CHO cells; assay: cell-based or functional assay
[7] = biological target: T5, rat PTH1R on UMR106 cells (rat, UniProt P25961 27-591); assay: cell-based or functional assay
T5 sequence (looked up): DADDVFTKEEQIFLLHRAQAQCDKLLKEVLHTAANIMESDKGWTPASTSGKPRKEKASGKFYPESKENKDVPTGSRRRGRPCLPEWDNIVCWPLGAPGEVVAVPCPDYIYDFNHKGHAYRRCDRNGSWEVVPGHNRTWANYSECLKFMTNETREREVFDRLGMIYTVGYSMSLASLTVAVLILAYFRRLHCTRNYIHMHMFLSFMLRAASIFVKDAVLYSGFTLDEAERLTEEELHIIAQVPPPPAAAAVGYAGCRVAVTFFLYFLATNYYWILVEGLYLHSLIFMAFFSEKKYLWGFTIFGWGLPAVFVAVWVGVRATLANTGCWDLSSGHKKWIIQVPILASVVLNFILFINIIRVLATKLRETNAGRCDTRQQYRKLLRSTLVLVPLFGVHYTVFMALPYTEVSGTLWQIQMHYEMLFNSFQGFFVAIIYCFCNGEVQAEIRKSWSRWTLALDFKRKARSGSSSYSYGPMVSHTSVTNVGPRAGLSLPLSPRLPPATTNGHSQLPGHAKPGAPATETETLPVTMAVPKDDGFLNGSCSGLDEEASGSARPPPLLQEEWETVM

Binder | EC50 [1] [nM] | EC50 [2] [nM] | Kd [3] [nM] | koff [3] [s⁻¹] | kon [3] [M⁻¹ s⁻¹] | EC50 of PTH(1-34), cAMP assay, with 267 nM IgG [4] [nM] | EC50 of PTHrP(1-34), cAMP assay, with 267 nM IgG [5] [nM] | EC50 of PTH(1-34), cAMP assay, with 267 nM IgG [6] [nM] | EC50 of PTH(1-34), cAMP assay, with 267 nM IgG [7] [nM]
XPA.85.335 (antibody, V domains shown, Light-chain-shuffled variant of XPA.85.017) VH: EVQLVETGGGVVRPGGSLRLSCAASGFTFSSSAMSWVRQTPGKELQWVSAITPGGEGTYYADVVKGRFTISRDNSKDTLYLQMDSLRAEDTAVYYCARDLYGSYGDAFDIWGQGTLVTVSS VL: QSVLTQPPSVSAAPGQRVTISCSGNTSNIGNNFVSWYQQLPGTAPKLLIYDDNKRPSGIPDRFSGSKSGTSATLGISGLQTGDEADYYCGTWDNSLNPPWVFGGGTQLTVL | 0.384 | 0.265 | 2.4 | 0.0019 | 800000 | 4.54 | 6.41 | 0.0429 | 
XPA.85.336 (antibody, V domains shown, Light-chain-shuffled variant of XPA.85.017) VH: EVQLVETGGGVVRPGGSLRLSCAASGFTFSSSAMSWVRQTPGKELQWVSAITPGGEGTYYADVVKGRFTISRDNSKDTLYLQMDSLRAEDTAVYYCARDLYGSYGDAFDIWGQGTLVTVSS VL: QSVLTQPPSVSAAPGQKVTISCSGTGSNIGSNYVAWYQQLPGTAPKLLIYDDNKRPSGTPDRFSGSKSGTSATLVIAGLQTGDEADYYCGTWDNTLNVGGVFGGGTQLTVL | 14.7 | 0.342 | 17 | 0.019 | 1.1e+06 | 0.144 | 23.6 | 0.0181 | 
XPA.85.337 (antibody, V domains shown, Light-chain-shuffled variant of XPA.85.017) VH: EVQLVETGGGVVRPGGSLRLSCAASGFTFSSSAMSWVRQTPGKELQWVSAITPGGEGTYYADVVKGRFTISRDNSKDTLYLQMDSLRAEDTAVYYCARDLYGSYGDAFDIWGQGTLVTVSS VL: SYVLTQPPSVSVAPGQTATITCSGDDFGDKYVSWYQQKPGQSPLLVIFQDNERPSGIPERFSGSNSGNTATLTISGTQAMDEADYYCQAWDSNWVFGGGTKVTVL | 3.27 | 1.26 | 0.75 | 0.00046 | 610000 | 0.219 | 27.1 | 0.107 | 2.88
